Test results reported in the supplement of paper PMC10567573.

B1: PKD2L1 (parent)
chain: SGPEAARAGGWVSGEEFYMLTRRV

Variants of: B1
Assay: protein stability index of a GFP-peptide fusion (GPS, HEK-293T) (PSI 1-6); higher = more stable
Conditions: c terminus: a fixed tail appended
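Further: lentivirally expressed fusions sorted by FACS into six bins by GFP to DsRed ratio, PSI derived from sequencing read proportions per bin multiplied by bin number.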

Protein stability index, by site and new letter:
L20: E 3.64
R23: V 2.16; M 1.84; E 2.84; N 2.5; C 2.14; D 3.49; H 2.05; L 1.53; S 2.97; K 2.45; G 2.93; Y 2.44; P 2.62; W 2.87; A 1.85; Q 1.92; F 2.06; T 2.07
W11: R 3.19; L 3.09; K 2.21; G 3.28; V 3.19; Q 3.92; M 2.76; A 3.56; N 3.85; D 3.52; I 2.6; T 3.09; F 2.05; H 4.33; C 2.79; P 3.19; E 4.09; Y 2.75; S 2.89
F17: D 4.59; K 3.39; A 4.1; G 4.13; S 3.58; R 3.68; L 2.85; Q 4.05; E 4.26; V 2.5; I 2.67; Y 2.79; H 3.33; W 2.14; M 3.27; P 3.89; N 3.89; C 3.03; T 3.37
R22: L 3.52; N 2.81; I 2.28; W 1.72; Q 2.25; D 3.43; T 1.33; E 3.26; K 2.04; Y 2.41; S 2.55; P 2.44; H 1.96; G 2.33; C 1.55
S13: H 2.74; Y 2.07; M 2.14; P 2.78; V 2.03; I 1.47; A 1.96; K 2.05; D 3.01; E 3.15; G 2.19; C 2.08; L 1.77; N 2.26; Q 3.19; F 2.44; W 2.17; T 2.13; R 2.84
M19: W 2.68; A 2.13; N 3.63; F 2.93; Q 3.38; T 2.94; E 3.69; V 1.48; C 2.82; D 3.5; K 3.1; R 3.11; P 3.94; L 3.28; I 2.01; H 3.08; Y 2.39; G 3.03; S 3.43
V12: T 2.31; D 2.91; W 2.28; R 2.86; G 3.15; Y 1.96; H 1.84; P 2.31; N 2.73; S 3.38; L 2.6; F 2.12; E 3.52; I 2.2; Q 2.49; K 2.47; M 2.25; C 2.46; A 2.51
V24: R 2.63; M 1.71; D 3.54; T 2.98; H 2.72; A 1.97; E 3.16; W 2.14; S 2.67; I 1.96; P 2.81; K 3.63; N 2.66; F 1.71; L 1.98; G 2.48; C 2.08; Q 3.01; Y 2.07
G14: H 2.4; S 2.6; Y 2.08; A 3.24; R 3.17; F 1.76; E 3.18; L 2.04; W 2.19; N 3.21; I 2.63; P 3.09; Q 2.57; V 2.27; T 3; M 2.46; D 3.91; K 2.52
G10: Y 1.79
